Data: patent publication US20110300138A1 (published 2011)
Like-named read-outs stand apart in the source and are kept apart here. Values belong to the molecule of their own block, whether it stands above or below them.

How the values were obtained:
[1] = target: human TSHR (thyroid stimulating hormone receptor) expressed in transfected CHO cells (human) (UniProt P16473); assay: cell-based or functional assay
[2] = target: thyroid stimulating hormone receptor (TSHR), full length human TSHR (human) (UniProt P16473); assay: TSH-biotin competition ELISA, TSHR coated wells; 1 µg/mL in HBD serum
[3] = target: full length wild type human TSHR (human) (UniProt P16473); assay: TSHR260-AP bridge ELISA, wild type TSHR on wells; IgG at 10 µg/mL in HBD
[4] = target: full length human TSHR with mutation Arg255 Asp (human) (UniProt P16473); assay: TSHR260-AP bridge ELISA, Arg255 Asp TSHR on wells; IgG at 10 µg/mL in HBD
[5] = target: full length wild type human TSHR (human) (UniProt P16473); assay: TSHR260-AP bridge ELISA, wild type TSHR on wells; IgG at 0.1 µg/mL in HBD
[6] = target: full length human TSHR with mutation Arg255 Asp (human) (UniProt P16473); assay: TSHR260-AP bridge ELISA, Arg255 Asp TSHR on wells; IgG at 0.005 µg/mL in HBD
[7] = target: thyroid stimulating hormone receptor (TSHR), full length, coated on tubes (human) (UniProt P16473); assay: inhibition of 125I-TSH binding, TSHR coated tubes; antibody 10 µg/mL in assay buffer
[8] = target: thyroid stimulating hormone receptor (TSHR), full length, coated on tubes (human) (UniProt P16473); assay: inhibition of 125I-TSH binding, TSHR coated tubes; antibody 100 µg/mL in HBD serum pool
[9] = target: TSH receptor (TSHR), full length human, coated on tubes (human) (UniProt P16473); assay: inhibition of 125I-TSH binding to TSHR coated tubes; 0.1 µg/mL, diluted in HBD serum pool
[10] = target: human thyroid stimulating hormone receptor (TSHR), full length (human) (UniProt P16473); assay: 125I-K1-70 Fab (competitor) binding to TSHR coated tubes; test sample 0.01 µg/mL in HBD serum
[11] = target: human thyroid stimulating hormone receptor (TSHR), full length (human) (UniProt P16473); assay: 125I-K1-70 Fab (competitor) binding to TSHR coated tubes; test sample 100 µg/mL in assay buffer
[12] = target: human thyroid stimulating hormone receptor (TSHR), full length (human) (UniProt P16473); assay: 125I-K1-70 Fab (competitor) binding to TSHR coated tubes; test sample 0.01 µg/mL in assay buffer
[13] = target: thyroid stimulating hormone receptor (full length human TSHR) (human) (UniProt P16473); assay: ELISA, inhibition of TSH-biotin binding to TSHR coated wells; 100 µg/mL, diluted in HBD serum pool
[14] = target: TSH receptor (full length human TSHR) (human) (UniProt P16473); assay: competition ELISA: inhibition of M22 Fab-peroxidase (competitor) binding to TSHR coated wells; test sample at 1 µg/mL diluted in assay buffer
[15] = target: TSHR with Arg255 mutated to Asp expressed in CHO cells (human) (UniProt P16473); assay: cell-based or functional assay
[16] = target: wild type TSHR expressed in CHO cells (human) (UniProt P16473); assay: cell-based or functional assay
[17] = target: TSHR with His105 mutated to Ala (expressed in CHO cells) (human) (UniProt P16473); assay: cell-based or functional assay
[18] = target: wild type TSHR expressed in CHO cells (human) (UniProt P16473); assay: cell-based or functional assay; remark: listed apart in the source
[19] = target: TSHR with Tyr206 mutated to Ala (human) (UniProt P16473); assay: cell-based or functional assay
wild type TSHR (human) = wild type TSHR (human) (UniProt P16473); assay: cell-based or functional assay
[20] = target: TSHR with Arg274 mutated to Ala, expressed in CHO cells (human) (UniProt P16473); assay: cell-based or functional assay
[21] = target: wild type TSHR expressed in CHO cells (human) (UniProt P16473); assay: cell-based or functional assay; remark: listed apart in the source
[22] = target: TSH receptor (TSHR), full length human, coated on tubes (human) (UniProt P16473); assay: inhibition of 125I-TSH binding to TSHR coated tubes; 0.01 µg/mL, diluted in assay buffer
[23] = target: human TSH receptor (full length) coated on ELISA plate wells (human) (UniProt P16473); assay: TSH-biotin binding inhibition ELISA, TSHR coated wells; 0.01 µg/mL in assay buffer + 100 µg/mL 5B3 IgG
TSHR260-AP (human) = assay: TSHR260-AP bridge ELISA (full length TSHR on wells, TSHR260-AP in solution); IgG 100 µg/mL diluted in assay buffer

% Inhibition; 10 ng/mL K1-18 IgG + 0.001 µg/mL 9D33 IgG [1]: 3%
% Inhibition; 10 ng/mL K1-18 IgG + 0.01 µg/mL 9D33 IgG [1]: 15%
% Inhibition; 10 ng/mL K1-18 IgG + 0.1 µg/mL 9D33 IgG [1]: 86%
% Inhibition; 10 ng/mL K1-18 IgG + 1 µg/mL 9D33 IgG [1]: 95%
% Inhibition; 10 ng/mL K1-18 IgG + 10 µg/mL 9D33 IgG [1]: 95%
% Inhibition; 10 ng/mL K1-18 IgG + 100 µg/mL 9D33 IgG [1]: 94%
Cyclic AMP concentration; 10 ng/mL K1-18 IgG + 0.001 µg/mL 9D33 IgG [1]: 35.8 pmol/mL
Cyclic AMP concentration; 10 ng/mL K1-18 IgG + 0.01 µg/mL 9D33 IgG [1]: 31.3 pmol/mL
Cyclic AMP concentration; 10 ng/mL K1-18 IgG + 0.1 µg/mL 9D33 IgG [1]: 5.3 pmol/mL
Cyclic AMP concentration; 10 ng/mL K1-18 IgG + 1 µg/mL 9D33 IgG [1]: 1.9 pmol/mL
Cyclic AMP concentration; 10 ng/mL K1-18 IgG + 10 µg/mL 9D33 IgG [1]: 1.9 pmol/mL
Cyclic AMP concentration; 10 ng/mL K1-18 IgG + 100 µg/mL 9D33 IgG [1]: 2.2 pmol/mL
Cyclic AMP concentration; 100 µg/mL 9D33 IgG [1]: 2 pmol/mL
Inhibition of binding (%) [2]: 76%
Mean absorbance at 405 nm (absorbance at 405 nm) [3]: 0.481
Mean absorbance at 405 nm (absorbance at 405 nm) [4]: 0.534
Mean absorbance at 405 nm (absorbance at 405 nm) [5]: 0.102
Mean absorbance at 405 nm (absorbance at 405 nm) [6]: 0.001
Inhibition of binding (%) [7]: 58.7%
Inhibition of binding (%) [8]: 67.4%
Inhibition of binding (%) [9]: 30.5%
Inhibition of binding (%) [10]: -1.2%
Inhibition of binding (%) [11]: 62.7%
Inhibition of binding (%) [12]: 5%
Inhibition of binding (%) [13]: 84%
Inhibition of binding (%) [14]: 60.1%
Molecule: 9D33 IgG (antibody)

% inhibition of TSH stimulation; TSH (2) control [15]: 13%
Cyclic AMP produced; TSH 3 ng/mL alone [15]: 57.8 pmol/mL
Cyclic AMP produced; TSH (2) [15]: 50.2 pmol/mL
Mutated/wild type (%) of cyclic AMP produced; TSH 3 ng/mL alone [15]: 87%
Mutated/wild type (%) of cyclic AMP produced; TSH (2) [15]: 77%
% inhibition of TSH stimulation; TSH (2) control [16]: 2%
Cyclic AMP produced; TSH 3 ng/mL alone [16]: 66.5 pmol/mL
Cyclic AMP produced; TSH (2) [16]: 64.8 pmol/mL
% inhibition of TSH stimulation; TSH (2), run at the end of assay [17]: 11%
Cyclic AMP produced; TSH 3 ng/mL alone [17]: 65.9 pmol/mL
Cyclic AMP produced; TSH (2) 3 ng/mL, run at the end of assay [17]: 58.5 pmol/mL
Mutated/wild type (%) of cyclic AMP produced; TSH 3 ng/mL alone [17]: 70%
Mutated/wild type (%) of cyclic AMP produced; TSH (2) 3 ng/mL, run at the end of assay [17]: 50%
% inhibition of TSH stimulation; TSH (2), run at the end of assay [18]: 0%
Cyclic AMP produced; TSH 3 ng/mL alone [18]: 93.6 pmol/mL
Cyclic AMP produced; TSH (2) 3 ng/mL, run at the end of assay [18]: 117 pmol/mL
% inhibition of TSH stimulation, TSH (2) run at the end of assay, mutated TSHR [19]: 16%
Cyclic AMP produced (pmol/mL), TSH 3 ng/mL, mutated TSHR [19]: 82.9 pmol/mL
Cyclic AMP produced (pmol/mL), TSH (2) 3 ng/mL run at the end of assay, mutated TSHR [19]: 69.5 pmol/mL
Mutated/wild type (%) of cyclic AMP produced; TSH 3 ng/mL [19]: 90%
Mutated/wild type (%) of cyclic AMP produced; TSH (2) 3 ng/mL, run at the end of assay [19]: 64%
Cyclic AMP produced (pmol/mL), TSH 3 ng/mL, wild type TSHR (wild type TSHR (human)): 92.2 pmol/mL
Cyclic AMP produced (pmol/mL), TSH (2) 3 ng/mL run at the end of assay, wild type TSHR (wild type TSHR (human)): 108 pmol/mL
% inhibition of TSH stimulation; TSH (2) 3 ng/mL, run at the end of assay [20]: 0%
Cyclic AMP produced; TSH 3 ng/mL [20]: 99.2 pmol/mL
Cyclic AMP produced; TSH (2) 3 ng/mL, run at the end of assay [20]: 100 pmol/mL
Mutated/wild type (%) of cyclic AMP produced; TSH 3 ng/mL [20]: 102%
Mutated/wild type (%) of cyclic AMP produced; TSH (2) 3 ng/mL, run at the end of assay [20]: 92%
% inhibition of TSH stimulation; TSH (2) 3 ng/mL, run at the end of assay [21]: 0%
Cyclic AMP produced; TSH 3 ng/mL [21]: 97.1 pmol/mL
Cyclic AMP produced; TSH (2) 3 ng/mL, run at the end of assay [21]: 109 pmol/mL
Molecule: TSH (ligand)

Inhibition of binding (%) [7]: 40.5%
Inhibition of binding (%) [8]: 35.3%
Inhibition of binding (%) [22]: 8.3%
Inhibition of binding (%) [10]: -4.4%
Inhibition of binding (%) [11]: 93.3%
Inhibition of binding (%) [12]: 10.9%
Inhibition of binding (%) [13]: 37.1%
% inhibition of TSH-biotin binding [23]: 20.7%
Mean absorbance at 405 nm (absorbance at 405 nm) (TSHR260-AP (human)): 0.669
B1: 5C9 IgG (antibody, from another filing, V domains shown)
VH: EVQLVESGGGLIQPGGSLRLSCAASGFTVSSNYMSWVRQAPGKGLEWVSVTYSGGSTSYADSVKGRFTISRDNSKNTLYLQMNSLRAEDTAVYYCARGGRYCSSISCYARSGCDYWGQGTLVTVSS
VL: AIQMTQSPSSLSASVGDRVTITCRASQSISNYLNWYQQKPGKAPKLLIYAASSLQSGVPSRFSGSGSGTDFTLTISSLQPEDFATYYCQQSYSSPSTTFGQGTKLEIK
